# From patent publication US10907134B2, “Mutated genes for the catalytic protein of oplophorus luciferase and use thereof” (JNC CORPORATION, priority 2013, dated 2021)
# Legend:
# [1] = Substrate specificities of KAZ mutants (ZZ-fused, crude enzyme), 6h-f-CTZ; format: biochemical; conditions: 1 μg substrate; for Relative Luminescence Activity 6h-f-CTZ Int.: integrated for 60 seconds; for Relative Luminescence Activity 6h-f-CTZ Imax: maximum intensity of luminescence
# Description: (§1) The coelenterazine analogues used for substrate specificity studies were synthesized by the methods described in publications. Specifically, bis-coelenterazine was synthesized by the method described in Nakamura et al. (1997) Tetrahedron Lett. 38: 6405-6406; furimazine by the method described in Hall et al. (2012) ACS Chem. Biol. […]; and, 6h-coelenterazine, f-coelenterazine and 6h-f-coelenterazine by the methods described in Inouye et al (2013) Biochem. Biophys. Res. Commun. 437: 23-28.
# (§2) DTT was added to the crude enzyme solutions obtained in EXAMPLE 17 at a final concentration of 1 mM and the mixtures were allowed to stand in an ice water for more than 5 hours in the same manner as Example 8. A luminescence reaction was started by the addition of 1 μL each of the crude enzyme solutions to 100 μL of TE containing 1 μg of coelenterazine (manufactured by JNC Corp.) or its analogues. The luminescence activities were determined using a luminometer (manufactured by Atto Inc.: AB2200) for 60 seconds, and the maximum intensity of luminescence (Imax) was shown as relative luminescence activity.
# [2] = Substrate specificities of KAZ mutants (ZZ-fused, crude enzyme), h-CTZ; format: biochemical; conditions: 1 μg substrate; for Relative Luminescence Activity h-CTZ Int.: integrated for 60 seconds; for Relative Luminescence Activity h-CTZ Imax: maximum intensity of luminescence
# Description: as §1, §2
# CHO-K1 cells [3] = test: Luminescence activity of KAZ mutants expressed in animal culture cells with signal peptide of Gaussia luciferase for secretion; format: cell-based, Chinese hamster; conditions: pcDNA3-GLsp- vectors; for Relative Luminescence Activity (Imax) (%) Cell Extracts / Relative Luminescence Activity (Imax) (%) Culture Medium: Table 5, CHO-K1, 48 hours, 0.5 μg coelenterazine; for Relative Luminescence Activity (Imax) (%) Cell Extracts: 5 μL cell extracts; for Relative Luminescence Activity (Imax) (%) Culture Medium: 5 μL culture medium; for Relative Luminescence Activity (%, Imax) Cell Extracts / Relative Luminescence Activity (%, Imax) Culture Medium: Table 11, CHO-K1, coelenterazine
# Description: (§3) Chinese hamster ovary cell line CHO-K1 was cultured in Ham's F-12 medium (manufactured by Wako Pure Chemical Industries, Ltd.) supplemented with 10% (v/v) fetal bovine serum (manufactured by Biowest Inc.). The CHO-K1 cells were plated in a 6-well plate in 1×10^5 cells/well/2 mL medium (n=2) and cultured in an incubator at 37° C. in 5% (v/v) CO2. After 24 hours, the purified recombinant plasmid was transfected to CHO-K1 cells using a FuGene HD transfection kit (manufactured by Promega Corp.), which was provided for subsequent experiment. Specifically, 1 μg of the recombinant plasmid pGL4.13 [Luc2/sv40], 0.1 μg of the internal standard vector and 3 μL of FuGene HD were added to 100 μL of the medium, which was allowed to stand at room temperature for 15 minutes. Subsequently, 100 μL of the DNA-FuGene complex was added to the cells in the 6 wells. After incubation for 48 hours, the culture medium was collected. On the other hand, the KAZ mutants expressed in the cells were washed 3 times with 3 mL of 1×PBS, then suspended in 1 mL of 1×PBS and disrupted on ice by ultrasonication, which was used as enzyme solutions of the cell-extracts of KAZ mutants.
# (§4) A luminescence reaction was started by adding 5 μL of the culture media and cell extracts obtained in EXAMPLE 10 to 100 μL of 30 mM Tris-HCl (pH 7.6)-10 mM EDTA (manufactured by Wako Pure Chemical Industries, Ltd.) containing 0.5 μg of coelenterazine (manufactured by INC Corp.). The luminescence activity was determined using a luminometer (manufactured by Atto Inc.: AB2200) for 60 seconds, and the maximum intensity of luminescence (Imax) was defined as a percentage.
# Culture media of the KAZ mutants with two amino acid substitutions and KAZ mutants with three amino acid substitutions and the enzyme solutions of the cell-extracts of KAZ mutants were prepared in the same manner as EXAMPLE 10.
# In the resultant enzyme solutions and the enzyme solutions of the cell-extracts of KAZ mutants, luminescence activities were determined in the same manner as EXAMPLE 11.
# [4] = Substrate specificities of KAZ mutants (ZZ-fused, crude enzyme), bis-CTZ; format: biochemical; conditions: 1 μg substrate; for Relative Luminescence Activity bis-CTZ Int.: integrated for 60 seconds; for Relative Luminescence Activity bis-CTZ Imax: maximum intensity of luminescence
# Description: as §1, §2
# [5] = Substrate specificities of KAZ mutants (ZZ-fused, crude enzyme), furimazine; format: biochemical; conditions: 1 μg substrate; for Relative Luminescence Activity Furimazine Int.: integrated for 60 seconds; for Relative Luminescence Activity Furimazine Imax: maximum intensity of luminescence
# Description: as §1, §2
# CHO-K1 cells [6] = test: Luminescence activity of KAZ mutants expressed in animal culture cells without secretional signal peptide sequence; format: cell-based, Chinese hamster; conditions: for Relative Luminescence Activity (Imax) Cell Extracts / Relative Luminescence Activity (Imax) Culture Medium: Table 12, pcDNA3- vectors without secretion signal; for Relative Luminescence Activity (Imax) Cell Extracts / Relative Luminescence Activity (Imax) Culture Medium / Luminescence activity in the cell extracts, fold higher than wild KAZ: CHO-K1, coelenterazine; for Luminescence activity in the cell extracts, fold higher than wild KAZ: vectors without a secretion signal; for Luminescence activity compared with wild KAZ when coelenterazine was used as a substrate: summary of results
# Description: as §3, §4
# The gene fragments of the KAZ mutants with two amino acid substitutions and three amino acid substitutions and nanoKAZ containing the Kozak sequence were digested with restriction enzymes Asp718 and XbaI, and inserted into the Asp718-XbaI site of pcDNA3 vector (manufactured by Invitrogen Inc.) to construct the vectors of pcDNA3-KAZ-V44I, pcDNA3-KAZ-A54I, pcDNA3-KAZ-Y138I, pcDNA3-KAZ-V44I-A54I, pcDNA3-KAZ-V44I-Y138I, pcDNA3-KAZ-A54I-Y138I and pcDNA3-KAZ-V44I-A54I-Y138I.
# The culture media of the KAZ mutants with two amino acid substitutions and KAZ mutants with three amino acid substitutions and the enzyme solutions of cell-extracts of KAZ mutants were obtained in the same manner as EXAMPLE 10.
# Luminescence activities of the resulting enzyme solutions and enzyme solutions of the cell-extracts of KAZ mutants were determined in the same manner as EXAMPLE 11.
# [7] = Substrate specificities of KAZ mutants (ZZ-fused, crude enzyme), CTZ; format: biochemical; conditions: for Relative Luminescence Activity CTZ Int. / Relative Luminescence Activity CTZ Imax: ZZ-fused crude enzyme, 1 μg substrate; for Relative Luminescence Activity CTZ Int.: integrated for 60 seconds; for Relative Luminescence Activity CTZ Imax: maximum intensity of luminescence; for Substrate specificity: coelenterazine versus its analogues
# Description: as §1, §2
# [8] = Substrate specificities of KAZ mutants (ZZ-fused, crude enzyme), 6h-CTZ; format: biochemical; conditions: 1 μg substrate; for Relative Luminescence Activity 6h-CTZ Int.: integrated for 60 seconds; for Relative Luminescence Activity 6h-CTZ Imax: maximum intensity of luminescence
# Description: as §1, §2
Molecule,Relative Luminescence Activity 6h-f-CTZ Int. [1],Relative Luminescence Activity 6h-f-CTZ Imax [1],Relative Luminescence Activity h-CTZ Int. [2],Relative Luminescence Activity h-CTZ Imax [2],Relative Luminescence Activity bis-CTZ Int. [4],Relative Luminescence Activity bis-CTZ Imax [4],Relative Luminescence Activity Furimazine Int. [5],Relative Luminescence Activity Furimazine Imax [5],Relative Luminescence Activity CTZ Int. [7],Relative Luminescence Activity CTZ Imax [7],Relative Luminescence Activity 6h-CTZ Int. [8],Relative Luminescence Activity 6h-CTZ Imax [8],Relative Luminescence Activity (Imax) (%) Cell Extracts (CHO-K1 cells [3]) [%],Relative Luminescence Activity (Imax) (%) Culture Medium (CHO-K1 cells [3]),Relative Luminescence Activity (Imax) Cell Extracts (CHO-K1 cells [6]),Relative Luminescence Activity (Imax) Culture Medium (CHO-K1 cells [6]),"Luminescence activity in the cell extracts, fold higher than wild KAZ (CHO-K1 cells [6]) [fold]","Relative Luminescence Activity (%, Imax) Cell Extracts (CHO-K1 cells [3]) [%]","Relative Luminescence Activity (%, Imax) Culture Medium (CHO-K1 cells [3])",Luminescence activity compared with wild KAZ when coelenterazine was used as a substrate (CHO-K1 cells [6]),further results
"KAZ-A54I: KAZ with single amino acid substitution A54I, SEQ ID NO: 6 (protein) FTLADFVGDWQQTAGYNQDQVLEQGGLSSLFQALGVSVTPIQKVVLSGENGLKIDIHVIIPYEGLSGFQMGLIEMIFKVVYPVDDHHFKIILHYGTLVIDGVTPNMIDYFGRPYPGIAVFDGKQITVTGTLWNGNKIYDERLINPDGSLLFRVTINGVTGWRLCENILA",2.0,1.6,6.9,11.8,3.4,3.0,2.1,2.0,9.0,8.4,2.1,1.6,2.4,less than 0.01%,6.7,0.03,6.7,,,,
"KAZ-V44I-A54I: KAZ mutant with two amino acid substitutions V44I and A54I, SEQ ID NO: 10 (protein) FTLADFVGDWQQTAGYNQDQVLEQGGLSSLFQALGVSVTPIQKIVLSGENGLKIDIHVIIPYEGLSGFQMGLIEMIFKVVYPVDDHHFKIILHYGTLVIDGVTPNMIDYFGRPYPGIAVFDGKQITVTGTLWNGNKIYDERLINPDGSLLFRVTINGVTGWRLCENILA",4.0,3.2,8.7,17.9,5.9,5.7,4.3,3.4,12.7,15.3,5.6,4.5,,,22.5,0.05,23,13.9,0.07%,markedly higher luminescence activities than wild KAZ,Substrate specificity [7]: high substrate specificity for coelenterazine
"KAZ-V44I-Y138I: KAZ mutant with two amino acid substitutions V44I and Y138I, SEQ ID NO: 12 (protein) FTLADFVGDWQQTAGYNQDQVLEQGGLSSLFQALGVSVTPIQKIVLSGENGLKADIHVIIPYEGLSGFQMGLIEMIFKVVYPVDDHHFKIILHYGTLVIDGVTPNMIDYFGRPYPGIAVFDGKQITVTGTLWNGNKIIDERLINPDGSLLFRVTINGVTGWRLCENILA",4.2,3.6,9.7,19.1,8.3,7.9,5.4,5.1,9.9,17.1,5.3,4.3,,,14.7,0.04,15,11.2,less than 0.01%,markedly higher luminescence activities than wild KAZ,Substrate specificity [7]: high substrate specificity for coelenterazine

# The next lines start with results.
Relative Luminescence Activity 6h-f-CTZ Int. [1],Relative Luminescence Activity 6h-f-CTZ Imax [1],Relative Luminescence Activity h-CTZ Int. [2],Relative Luminescence Activity h-CTZ Imax [2],Relative Luminescence Activity bis-CTZ Int. [4],Relative Luminescence Activity bis-CTZ Imax [4],Relative Luminescence Activity Furimazine Int. [5],Relative Luminescence Activity Furimazine Imax [5],Relative Luminescence Activity CTZ Int. [7],Relative Luminescence Activity CTZ Imax [7],Relative Luminescence Activity 6h-CTZ Int. [8],Relative Luminescence Activity 6h-CTZ Imax [8],Molecule,Relative Luminescence Activity (Imax) (%) Cell Extracts (CHO-K1 cells [3]) [%],Relative Luminescence Activity (Imax) (%) Culture Medium (CHO-K1 cells [3]),Relative Luminescence Activity (Imax) Cell Extracts (CHO-K1 cells [6]),Relative Luminescence Activity (Imax) Culture Medium (CHO-K1 cells [6]),"Luminescence activity in the cell extracts, fold higher than wild KAZ (CHO-K1 cells [6]) [fold]","Relative Luminescence Activity (%, Imax) Cell Extracts (CHO-K1 cells [3]) [%]","Relative Luminescence Activity (%, Imax) Culture Medium (CHO-K1 cells [3])",Luminescence activity compared with wild KAZ when coelenterazine was used as a substrate (CHO-K1 cells [6]),further results
0.8,0.6,3.0,3.9,1.5,1.3,0.8,0.6,5.9,7.5,0.3,0.2,"KAZ-Y138I: KAZ with single amino acid substitution Y138I, SEQ ID NO: 8 (protein) FTLADFVGDWQQTAGYNQDQVLEQGGLSSLFQALGVSVTPIQKVVLSGENGLKADIHVIIPYEGLSGFQMGLIEMIFKVVYPVDDHHFKIILHYGTLVIDGVTPNMIDYFGRPYPGIAVFDGKQITVTGTLWNGNKIIDERLINPDGSLLFRVTINGVTGWRLCENILA",1.0,less than 0.01%,6.4,0.03,6.4,,,,
0.7,0.6,2.2,3.7,1.4,1.1,0.9,0.6,5.9,7.2,0.6,0.4,"KAZ-V44I: KAZ with single amino acid substitution V44I, SEQ ID NO: 4 (protein) FTLADFVGDWQQTAGYNQDQVLEQGGLSSLFQALGVSVTPIQKIVLSGENGLKADIHVIIPYEGLSGFQMGLIEMIFKVVYPVDDHHFKIILHYGTLVIDGVTPNMIDYFGRPYPGIAVFDGKQITVTGTLWNGNKIYDERLINPDGSLLFRVTINGVTGWRLCENILA",0.7,less than 0.01%,3.7,0.06,3.7,,,,
